{"source": "patent US20180216136", "system": "ZFN 30035 (AAVS1) (synthetic)", "assay": "cell_activity", "details": "pair 30035:30054 in CD34+ cells, higher AAV6 donor dose, ZFN mRNA 40 ug/ml"}
{"sequence": "CCCCACTGTGGGGTGGAGGGGACAGATA (double strand) [AAVS1 30035 target]", "values": [{"measurement": "activity (% targeted integration)", "result": "> 50"}]}
